The source of these data is patent US20140087995A1 (published 2014).

First the molecules themselves.
T1: human amylin receptor (amylin 3(a) receptor: human calcitonin receptor with RAMP-3) (human, UniProt P30988 25-474; O60896 24-148)
T1 construct: whole, on cells; also called hAmylin-R; hAmylinR
T1 sequence (looked up) 1: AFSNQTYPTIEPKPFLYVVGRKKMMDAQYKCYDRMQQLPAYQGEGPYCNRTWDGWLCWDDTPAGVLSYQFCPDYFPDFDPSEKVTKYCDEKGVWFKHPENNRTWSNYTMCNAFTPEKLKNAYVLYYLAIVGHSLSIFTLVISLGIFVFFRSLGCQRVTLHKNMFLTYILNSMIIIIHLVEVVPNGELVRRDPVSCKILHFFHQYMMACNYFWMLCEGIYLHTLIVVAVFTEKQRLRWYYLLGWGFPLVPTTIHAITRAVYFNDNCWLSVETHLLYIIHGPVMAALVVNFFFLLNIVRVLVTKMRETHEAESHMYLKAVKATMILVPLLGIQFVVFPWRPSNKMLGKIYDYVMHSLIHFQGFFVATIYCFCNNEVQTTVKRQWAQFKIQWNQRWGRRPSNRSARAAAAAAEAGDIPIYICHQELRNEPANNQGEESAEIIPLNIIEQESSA
T1 sequence (looked up) 2: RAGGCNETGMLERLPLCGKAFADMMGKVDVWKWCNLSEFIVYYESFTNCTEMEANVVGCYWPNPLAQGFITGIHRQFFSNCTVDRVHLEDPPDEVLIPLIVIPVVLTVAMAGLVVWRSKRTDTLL

B1: N^ε1-[2-[2-[2-[[2-[2-[2-[[(4S)-4-carboxy-4-(19-carboxynonadecanoylamino)butanoyl]amino]ethoxy]ethoxy]acetyl]amino]ethoxy]ethoxy]acetyl]-[Arg17,Pro21,Pro27,Pro31 … (peptide)
peptide: K([AEEA-AEEA-γGlu-C20 diacid])CNTATCATQRLANFLRHSSPNFGAIPSSTPVGSNTY-NH2
modifications: disulfide 2-7; N-terminus assumed
SMILES: CC[C@H](C)[C@H](NC(=O)[C@H](C)NC(=O)CNC(=O)[C@H](Cc1ccccc1)NC(=O)[C@H](CC(N)=O)NC(=O)[C@@H]1CCCN1C(=O)[C@H](CO)NC(=O)[C@H](CO)NC(=O)[C@H](Cc1c[nH]cn1)NC(=O)[C@H](CCCNC(=N)N)NC(=O)[C@H](CC(C)C)NC(=O)[C@H](Cc1ccccc1)NC(=O)[C@H](CC(N)=O)NC(=O)[C@H](C)NC(=O)[C@H](CC(C)C)NC(=O)[C@H](CCCNC(=N)N)NC(=O)[C@H](CCC(N)=O)NC(=O)[C@@H](NC(=O)[C@H](C)NC(=O)[C@@H]1CSSC[C@H](NC(=O)[C@@H](N)CCCCNC(=O)COCCOCCNC(=O)COCCOCCNC(=O)CC[C@H](NC(=O)CCCCCCCCCCCCCCCCCCC(=O)O)C(=O)O)C(=O)N[C@@H](CC(N)=O)C(=O)N[C@@H]([C@@H](C)O)C(=O)N[C@@H](C)C(=O)N[C@@H]([C@@H](C)O)C(=O)N1)[C@@H](C)O)C(=O)N1CCC[C@H]1C(=O)N[C@@H](CO)C(=O)N[C@@H](CO)C(=O)N[C@H](C(=O)N1CCC[C@H]1C(=O)N[C@H](C(=O)NCC(=O)N[C@@H](CO)C(=O)N[C@@H](CC(N)=O)C(=O)N[C@H](C(=O)N[C@@H](Cc1ccc(O)cc1)C(N)=O)[C@@H](C)O)C(C)C)[C@@H](C)O
notes: also called 96; compound 96
B2: N^ε1-[2-[2-[2-[[2-[2-[2-[[(4S)-4-carboxy-4-(19-carboxynonadecanoylamino)butanoyl]amino]ethoxy]ethoxy]acetyl]amino]ethoxy]ethoxy]acetyl]-[Arg17,Pro21,Pro27,Pro34 … (peptide)
peptide: K([AEEA-AEEA-γGlu-C20 diacid])CNTATCATQRLANFLRHSSPNFGAIPSSTNVGPNTY-NH2
modifications: disulfide 2-7; N-terminus assumed
SMILES: CC[C@H](C)[C@H](NC(=O)[C@H](C)NC(=O)CNC(=O)[C@H](Cc1ccccc1)NC(=O)[C@H](CC(N)=O)NC(=O)[C@@H]1CCCN1C(=O)[C@H](CO)NC(=O)[C@H](CO)NC(=O)[C@H](Cc1c[nH]cn1)NC(=O)[C@H](CCCNC(=N)N)NC(=O)[C@H](CC(C)C)NC(=O)[C@H](Cc1ccccc1)NC(=O)[C@H](CC(N)=O)NC(=O)[C@H](C)NC(=O)[C@H](CC(C)C)NC(=O)[C@H](CCCNC(=N)N)NC(=O)[C@H](CCC(N)=O)NC(=O)[C@@H](NC(=O)[C@H](C)NC(=O)[C@@H]1CSSC[C@H](NC(=O)[C@@H](N)CCCCNC(=O)COCCOCCNC(=O)COCCOCCNC(=O)CC[C@H](NC(=O)CCCCCCCCCCCCCCCCCCC(=O)O)C(=O)O)C(=O)N[C@@H](CC(N)=O)C(=O)N[C@@H]([C@@H](C)O)C(=O)N[C@@H](C)C(=O)N[C@@H]([C@@H](C)O)C(=O)N1)[C@@H](C)O)C(=O)N1CCC[C@H]1C(=O)N[C@@H](CO)C(=O)N[C@@H](CO)C(=O)N[C@H](C(=O)N[C@@H](CC(N)=O)C(=O)N[C@H](C(=O)NCC(=O)N1CCC[C@H]1C(=O)N[C@@H](CC(N)=O)C(=O)N[C@H](C(=O)N[C@@H](Cc1ccc(O)cc1)C(N)=O)[C@@H](C)O)C(C)C)[C@@H](C)O
notes: also called 98; compound 98
B3: N^ε1-[2-[2-[2-[[(4S)-4-carboxy-4-(19-carboxynonadecanoylamino)butanoyl]amino]ethoxy]ethoxy]acetyl]-[Arg14,Arg17,Pro21,Pro27,Pro31]-h-amylin (peptide)
peptide: K([AEEA-γGlu-C20 diacid])CNTATCATQRLARFLRHSSPNFGAIPSSTPVGSNTY-NH2
modifications: disulfide 2-7; N-terminus assumed
SMILES: CC[C@H](C)[C@H](NC(=O)[C@H](C)NC(=O)CNC(=O)[C@H](Cc1ccccc1)NC(=O)[C@H](CC(N)=O)NC(=O)[C@@H]1CCCN1C(=O)[C@H](CO)NC(=O)[C@H](CO)NC(=O)[C@H](Cc1c[nH]cn1)NC(=O)[C@H](CCCNC(=N)N)NC(=O)[C@H](CC(C)C)NC(=O)[C@H](Cc1ccccc1)NC(=O)[C@H](CCCNC(=N)N)NC(=O)[C@H](C)NC(=O)[C@H](CC(C)C)NC(=O)[C@H](CCCNC(=N)N)NC(=O)[C@H](CCC(N)=O)NC(=O)[C@@H](NC(=O)[C@H](C)NC(=O)[C@@H]1CSSC[C@H](NC(=O)[C@@H](N)CCCCNC(=O)COCCOCCNC(=O)CC[C@H](NC(=O)CCCCCCCCCCCCCCCCCCC(=O)O)C(=O)O)C(=O)N[C@@H](CC(N)=O)C(=O)N[C@@H]([C@@H](C)O)C(=O)N[C@@H](C)C(=O)N[C@@H]([C@@H](C)O)C(=O)N1)[C@@H](C)O)C(=O)N1CCC[C@H]1C(=O)N[C@@H](CO)C(=O)N[C@@H](CO)C(=O)N[C@H](C(=O)N1CCC[C@H]1C(=O)N[C@H](C(=O)NCC(=O)N[C@@H](CO)C(=O)N[C@@H](CC(N)=O)C(=O)N[C@H](C(=O)N[C@@H](Cc1ccc(O)cc1)C(N)=O)[C@@H](C)O)C(C)C)[C@@H](C)O
notes: also called 64; compound 64
B4: N^ε1-[2-[2-[2-[[(4S)-4-carboxy-4-(19-carboxynonadecanoylamino)butanoyl]amino]ethoxy]ethoxy]acetyl]-[Arg17,Pro21,Pro27,Arg34]-h-amylin (peptide)
peptide: K([AEEA-γGlu-C20 diacid])CNTATCATQRLANFLRHSSPNFGAIPSSTNVGRNTY-NH2
modifications: disulfide 2-7; N-terminus assumed
SMILES: CC[C@H](C)[C@H](NC(=O)[C@H](C)NC(=O)CNC(=O)[C@H](Cc1ccccc1)NC(=O)[C@H](CC(N)=O)NC(=O)[C@@H]1CCCN1C(=O)[C@H](CO)NC(=O)[C@H](CO)NC(=O)[C@H](Cc1c[nH]cn1)NC(=O)[C@H](CCCNC(=N)N)NC(=O)[C@H](CC(C)C)NC(=O)[C@H](Cc1ccccc1)NC(=O)[C@H](CC(N)=O)NC(=O)[C@H](C)NC(=O)[C@H](CC(C)C)NC(=O)[C@H](CCCNC(=N)N)NC(=O)[C@H](CCC(N)=O)NC(=O)[C@@H](NC(=O)[C@H](C)NC(=O)[C@@H]1CSSC[C@H](NC(=O)[C@@H](N)CCCCNC(=O)COCCOCCNC(=O)CC[C@H](NC(=O)CCCCCCCCCCCCCCCCCCC(=O)O)C(=O)O)C(=O)N[C@@H](CC(N)=O)C(=O)N[C@@H]([C@@H](C)O)C(=O)N[C@@H](C)C(=O)N[C@@H]([C@@H](C)O)C(=O)N1)[C@@H](C)O)C(=O)N1CCC[C@H]1C(=O)N[C@@H](CO)C(=O)N[C@@H](CO)C(=O)N[C@H](C(=O)N[C@@H](CC(N)=O)C(=O)N[C@H](C(=O)NCC(=O)N[C@@H](CCCNC(=N)N)C(=O)N[C@@H](CC(N)=O)C(=O)N[C@H](C(=O)N[C@@H](Cc1ccc(O)cc1)C(N)=O)[C@@H](C)O)C(C)C)[C@@H](C)O
notes: also called 78; compound 78
B5: N^ε1-[2-[2-[2-[[(4S)-4-carboxy-4-(19-carboxynonadecanoylamino)butanoyl]amino]ethoxy]ethoxy]acetyl]-[Ala14,Arg17,Pro21,Pro27,Pro31]-h-amylin (peptide)
peptide: K([AEEA-γGlu-C20 diacid])CNTATCATQRLAAFLRHSSPNFGAIPSSTPVGSNTY-NH2
modifications: disulfide 2-7; N-terminus assumed
SMILES: CC[C@H](C)[C@H](NC(=O)[C@H](C)NC(=O)CNC(=O)[C@H](Cc1ccccc1)NC(=O)[C@H](CC(N)=O)NC(=O)[C@@H]1CCCN1C(=O)[C@H](CO)NC(=O)[C@H](CO)NC(=O)[C@H](Cc1c[nH]cn1)NC(=O)[C@H](CCCNC(=N)N)NC(=O)[C@H](CC(C)C)NC(=O)[C@H](Cc1ccccc1)NC(=O)[C@H](C)NC(=O)[C@H](C)NC(=O)[C@H](CC(C)C)NC(=O)[C@H](CCCNC(=N)N)NC(=O)[C@H](CCC(N)=O)NC(=O)[C@@H](NC(=O)[C@H](C)NC(=O)[C@@H]1CSSC[C@H](NC(=O)[C@@H](N)CCCCNC(=O)COCCOCCNC(=O)CC[C@H](NC(=O)CCCCCCCCCCCCCCCCCCC(=O)O)C(=O)O)C(=O)N[C@@H](CC(N)=O)C(=O)N[C@@H]([C@@H](C)O)C(=O)N[C@@H](C)C(=O)N[C@@H]([C@@H](C)O)C(=O)N1)[C@@H](C)O)C(=O)N1CCC[C@H]1C(=O)N[C@@H](CO)C(=O)N[C@@H](CO)C(=O)N[C@H](C(=O)N1CCC[C@H]1C(=O)N[C@H](C(=O)NCC(=O)N[C@@H](CO)C(=O)N[C@@H](CC(N)=O)C(=O)N[C@H](C(=O)N[C@@H](Cc1ccc(O)cc1)C(N)=O)[C@@H](C)O)C(C)C)[C@@H](C)O
notes: also called 72; compound 72
B6: N^ε1-[2-[2-[2-[[(4S)-4-carboxy-4-(19-carboxynonadecanoylamino)butanoyl]amino]ethoxy]ethoxy]acetyl]-[Arg14,Arg17,Pro21,Pro27]-h-amylin (peptide)
peptide: K([AEEA-γGlu-C20 diacid])CNTATCATQRLARFLRHSSPNFGAIPSSTNVGSNTY-NH2
modifications: disulfide 2-7; N-terminus assumed
SMILES: CC[C@H](C)[C@H](NC(=O)[C@H](C)NC(=O)CNC(=O)[C@H](Cc1ccccc1)NC(=O)[C@H](CC(N)=O)NC(=O)[C@@H]1CCCN1C(=O)[C@H](CO)NC(=O)[C@H](CO)NC(=O)[C@H](Cc1c[nH]cn1)NC(=O)[C@H](CCCNC(=N)N)NC(=O)[C@H](CC(C)C)NC(=O)[C@H](Cc1ccccc1)NC(=O)[C@H](CCCNC(=N)N)NC(=O)[C@H](C)NC(=O)[C@H](CC(C)C)NC(=O)[C@H](CCCNC(=N)N)NC(=O)[C@H](CCC(N)=O)NC(=O)[C@@H](NC(=O)[C@H](C)NC(=O)[C@@H]1CSSC[C@H](NC(=O)[C@@H](N)CCCCNC(=O)COCCOCCNC(=O)CC[C@H](NC(=O)CCCCCCCCCCCCCCCCCCC(=O)O)C(=O)O)C(=O)N[C@@H](CC(N)=O)C(=O)N[C@@H]([C@@H](C)O)C(=O)N[C@@H](C)C(=O)N[C@@H]([C@@H](C)O)C(=O)N1)[C@@H](C)O)C(=O)N1CCC[C@H]1C(=O)N[C@@H](CO)C(=O)N[C@@H](CO)C(=O)N[C@H](C(=O)N[C@@H](CC(N)=O)C(=O)N[C@H](C(=O)NCC(=O)N[C@@H](CO)C(=O)N[C@@H](CC(N)=O)C(=O)N[C@H](C(=O)N[C@@H](Cc1ccc(O)cc1)C(N)=O)[C@@H](C)O)C(C)C)[C@@H](C)O
notes: also called 82; compound 82

Numbered stars: 1 amine (or outer) side, 2 acyl side, 3 side chain; on linkers, the order of the positions; unused ones are H or OH. Bridge positions count the residues as written; N and C are the ends. Side chains are listed from the residue outwards. Ends that are not written are not given here. * marks the point of attachment. C20 diacid = O=C(O)CCCCCCCCCCCCCCCCCCC(=O)*; γGlu = O=C(O)[C@H](CCC(=O)[*:2])N[*:1]; AEEA = NCCOCCOCC(=O)O

For this test, the target named is T1, human amylin receptor (amylin 3(a) …). As to the kind of experiment: SPA displacement of 125I-rat amylin, hAmylin 3(a) receptor membranes. The method, boiled down: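 Cell membranes were prepared by homogenisation in Na-HEPES/EDTA buffer, pH 7.4, and stored at −80° C. They were then coupled to SPA beads at 35 ng/μL final and exposed to compounds in assay buffer containing CaCl2, MgCl₂, OA and Tween20. After 120 min at 25° C, plates were counted and IC₅₀ derived.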
Take B1: the half-maximal inhibitory concentration (IC50) was 166 pM.
For B2 the value was 91 pM.
The value for B3 was 444 pM; that for B4 was 602 pM.
In the case of B5, the IC50 was 172 pM.
For B6 the value was 636 pM.

Usually IC50 stands for the point on the concentration scale where inhibition reaches its midpoint.
